Source: PMC4460866, “A folded and immunogenic IgE-hyporeactive variant of the major allergen Phl p 1 produced in Escherichia coli” (BMC Biotechnology, 2015)

Molecular target: the molecule itself
Test: SEC; gel filtration of the purified tag-free proteins; elution volumes corresponding to approximately 20 kDa; data not shown

Row | Protein | stoichiometry N
1 | C-terminal domain of Phl p 1.0102 (wild-type), GST tag removed (domain or fragment) KVTFHVEKGSNPNYLALLVKYVNGDGDVVAVDIKEKGKDKWIELKESWGAIWRIDTPDKLTGPFTVRYTTEGGTKTEAEDVIPEGWKADTSYESK | 2
2 | IgE-hyporeactive (K8A, N11A, D55A) mutant of the C-terminal domain of Phl p 1.0102, GST tag removed (domain or fragment) KVTFHVEAGSAPNYLALLVKYVNGDGDVVAVDIKEKGKDKWIELKESWGAIWRIATPDKLTGPFTVRYTTEGGTKTEAEDVIPEGWKADTSYESK | 2
